Results reported in the domain aggregation screens of Martell et al. (2025).

experiment: soluble fraction after stress (log2 fold change); higher = more stays soluble; pooled small domains, quantitative proteomics; details: stress: 75 degC
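Further: 20 min heating vs room temperature control held 20 min.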

| Sequence | soluble fraction (log2) |
| --- | --- |
| HMTTYVNGSWSGWNGSTVVKLTDGSVWRQAEYHYEYHYAYRPQARLERDELFVEGMSRGVRV | -0.0587 |
| HMTVADMQQKANVKRRNSNSHEAILDATVKLLGSSGYIDFSIEKVASQAGVGKQTIYRWWPSRADLVLEVW | -0.506 |
| HMTVAEVEDRMEASRVRQALDAVGEPHRTTIALAYFTGLTHTEIAQRMGVPLGTVKSRIRDGMAKMRTHLG | -1.24 |
| HMTVDHDERRSMILEAFMRLAAREGLHAVSLRGVAAEAGISLRLVQYYFETKARLMQSGLTALET | -0.141 |
| HMTVKKLIINEDNSGRRIDNYLLSIFNSVPRSKIYNIIRKGEVRVNSSRIKPSYRLEEGDQVRIPPNLDYT | -1.05 |
| HMTVKRNILQELLKTAFKHPEDFRPSKTFYGETGIGQKRFWALYYGHKAVTQKEYYAVADYLG | -0.0737 |
| HMTVLDYNENVLSKVMNAAEINDSDKEAFIAFAKDYNSDDNLYLKKEELETAAGAWNARNVE | 0.2 |
| HMTVLTDEIKVILISYIKENDFKKKHGNRKMMMTAQDMYDELVEKGYKISYPTVTQYVQKYRENETT | -1.63 |
| HMTVMTGSQRRKKILELMRDAKEPLSGGALGKETGVSRHVVVQDIALLRTQGYPIVATARGYIINE | -1.32 |
| HMTVRLSVSADGKFFWNESQVSEEELFPRLQAEAAKEPQPDLHIRGDKNVRYEFVAQAMAAAQRAGVRKI | -0.797 |
| HMTVSADQTAADAVIKLINAIGTVSENSGSAISAARSGYDALTDTQKKLVTNYNKLTQAEQVFSSLPS | 0.336 |
| HMTVSGNIAGDYKDYLPQKTDVINGMTVTYRMVDDAVYLASWKHAGQNHVFLFNDPVSVERAREMI | -0.556 |
| HMTVSIDSLFDKFEDLQEQGLGDKTEEGQELRGLIRAFIEQEHLSVRITRSTSNQELLDMIEEAMQ | -1.25 |
| HMTVSRRYTENEMETALKAYLATHNFISRRDMQQEFALTIYSARKWLNHFVDVGLIERIGLKNAPIYKL | -0.0893 |
| HMTVTKYGKKILEIVSSSRSHMTAEEIFDALRQTYPTVVLATVYNNLNRLWQDDLIRKVSVEGMPDRYD | -1.28 |
| HMTVVPNIVNQPEAAGTNLLISSNLKPGNRAVQYSDTVKAGDIISQSPEPGAQATLGGKVDYVISQGPAPT | 0.174 |
| HMTWIAEIELRLMGNGAVTGAKIVKSTDLKDVDAAIYRAALEASPYPAPESGIGGRFTIKLKY | -0.037 |
| HMTYLIKFDENGRRSDTYVAEEKTQEQVTELLEKGFVLITEEDYQLLVGNVDGKEYIRNADGTYSEYT | 0.563 |
| HMTYMWTTDGVNLRSEPNTDSAVVTVLGVGTQVRMIGEEDGWVKVSFNDQEGYIRADFLTTE | -0.198 |
| HMTYSAFITARNKRIAEEYSVLLDSLNISNNVIYRLGSWVVEVNVSDHSRAIDEIYSYERSGRIDKV | -3.1 |
| HMTYYEGYYRKNQKGFGFVIVDGRDEDIYIDAKNMNGALNNDLVVVEELKGQNGKKTEGRVVKVLKKE | -0.17 |
| HMVADLSGVGDKDIIVDQFIYHEVLPKETIYSIVKSFNVTSEDLNKNNPFLRANGLRIGQVIRIPLKI | -1.27 |
| HMVAEPTYGRTTDVLNIRSGPSTDDERIGQLSRGAVVTILEEKDGWYRLQRGYISADYVTQISAEEASNS | -0.0612 |
| HMVAEPVYGKVTEGPLNVRSAPSTDSEKVDSFSTGKVLTILETLDGWYKVEEGYVSADYVTIIDAAEAASS | -0.162 |
| HMVAGHLSEKKGYYYAVLNYKDYTGKRKSKWVSTGLPVKGNKRRAEKILADIKRDFVPEEPKR | -0.96 |
| HMVAGQDPVKRQQILDGAKRVFLGVGFDAASMNDITREAGVSKGTIYVYFGSKEELFGALIDR | -0.828 |

| Sequence | soluble fraction (log2) |
| --- | --- |
| HMVAMLDASYRGVMQTISTLLAQGNTERAYDEAVNARGQMSKQQWNNLANLIWERTGQKIDSGVSYK | 0.367 |
| HMVDEAQSLERNVLLTVLSRIGRDSRVVLTHDIAQRDNLRVGRHDGVVAVVDRLKGHPLFAHVTL | 0.163 |
| HMVDERMVTYINSLDKGNTPFLNELEKEALANYVPIIRREMQSFLKVLLQIKAPLRILEVGTAVGFSTILM | 0.0501 |
| HMVDGAHKQQAAVQALTPALKVLAAAPEGKKGQAIQALRAVLKQHGRWLDDATAQQVHEQLLAAGDAQGWQ | 0.478 |
| HMVDIGQSIRVELIREGKDSHQAVGYLRDGSMVVVNHGRKLIGSTVEVEITSIVPSSAGKVIFAEYLE | -2.67 |
| HMVDIQTGQKVRIHTSQFAGKIGNITALNVKSAELPNGIRTATASILMQSNENVMLPVSNFDIIE | -0.0419 |
| HMVDIVLDILKIVAEKQPGNQFSQSILMQYQERGGLSKKQLEGLYGKAKRIPEIPQNKLATLEAIILR | -1.84 |
| HMVDKNDLTAIDGIGPFLEKKLNDVGVFTYADIAGWDAAKIEEITQQISFFEGRIEKDDWVGQAQKLIDDQ | -0.124 |
| HMVDKSYIHNQQVASDTWTVQHNLGKYPAVSVADTGNNEVYGDVRHINENTVELKFSHPFSGVAFF | 0.61 |
| HMVDKTMYDRYAVDDYVRVIDGPLVGTEGRIIELDRETGNVKIEAVFFGRVTTADINFALIEKVD | -0.717 |
| HMVDLDIENYELEDILNLFRLQYNFVEADLKRAYRMALKLHPDKSGLDGEYFRFYMKAYKIVENIFNFRNR | -1.5 |
| HMVDSVIGSVGRVTVDIDNVEALGQVKLGGMEWSARSTSGDPIPAGTEVRVDRVEGVKVFVTPV | -0.117 |
| HMVDVEMLTTVSDHIEAKLLQGILENHGIPSYSVDEESGEYMRVYMGYSIFGEKIYVRASDLLAAQGYL | -2.23 |
| HMVDWTFPVLVKDVVMMGRYGHMGFLRIPGKKDFESVDNALAKVGMVEYAKQQIGELSGGQR | -0.019 |
| HMVDYSMEDSVWNNKKEHVNEWFDANPEHEGRRVIVDGLFAIGDAQPDLRKRHWSSISVVFADLDNSPIG | -0.327 |
| HMVEDPADNQKAADAVIKKISEIGEVTESSENLIKEARASYDALTDNQKELVTNYDVLVQAEAQLENIKD | 0.282 |
| HMVEEVDYGTFMRMIEEKNIGKVEVRAGEIVFTDKDEKQIYKTGAMEDATLTQRLYESGAEFSKDV | -0.0507 |
| HMVEGVSLVEIYVDENSKYNGKLLSEIPKKENTLVIMIQRGEQVIIPHGNIRLESGDMLVVSKTEI | -2.71 |
| HMVEKNALSEEIEGYVNKYGKDRSSLMPVLQAIQRKHSYINDFAQQEVARLLDIHPVEVFSVISFYSFLH | -2.21 |
| HMVEKRLFPQISDAGKRLDLFLAGALAISRTMVVKIIKDGGVLVNGKAAKASYRLAGDEELLVSYEEP | -3.48 |
| HMVEMPEVGVKVRIEVESHNGSTNFEGIVLHPASKGHLTLKLINGYNASYLIEEIRNLEIIDSS | -1.64 |
| HMVENATPEEREALNDIAMEAMGMVKDGKPTSAREFVQSQNLDNDQKILLWSLLDAPTRSALKTAEK | 0.373 |
| HMVEPIKAPMPGMVLKILVEPGQQIEKGQGVLILEAMKMENVLKSSAAATVKSIKVSEKSAVEKGAILVEL | -0.463 |
| HMVEQVEISILPGEYSDTISQKLLDAGLIDDKAAFSKYINDTNVDNLIQPGTFTVPKGASYEEVAKILT | 0.214 |
| HMVERRVRFTVAPGNAGLRLDLFLTAREIGLSRTQVGRAVDEGQIQVNGRPGRAGRKLKTGDVVAIVLPA | -1.13 |
| HMVESLTDRELQILSLAAKGYTNKAIAVQLGISDRTVQNHLANTFQKLNAESRTEAVMRAVSLGLISA | -0.542 |

| Sequence | soluble fraction (log2) |
| --- | --- |
| HMVETVQVVGAGQDIMPGSRINYSSLHYITVPRSYFHEDMFAKNNLVVGRIARAYVAKGEPLLAASLMPK | -2.29 |
| HMVEVPYSEFLKELDAGNVKDVYVSNGESQIQFTKKDQKQWNLSYKTGPIPGDDLVKRLQNADVENFT | 0.109 |
| HMVEVTTDEITRPGAMVSGSVTFSDGVKAIWLIDEYGRPGLEPETPGYQPSESDLSEFEKHLRALLQ | 0.362 |
| HMVEVVDAEKLEERLSKVFSAAVLLEIYNENPAHGKEYAYLFTARKNAVEEMIENGQMKRETWEAK | -0.987 |
| HMVFSKEELLFNSDSLLSLYPNDNKLLETILSEKIDHAVKNNDMSMYKEILVIDPKNPLANYHLLM | 0.354 |
| HMVFTEEERAEYREKMLDAGFDLLKQYGMTHMSVAKITEAAGIGVSTFYNFFSSKEEYVYEVLQYRRRK | -1.3 |
| HMVGIVQKTFEPTGIAAEELMKTLKSDKSLDFGNVQILATPKSSTSRQVVVVSGRANDVDRVMMVLSNLDS | -0.326 |
| HMVGKIVVPHLEGKPAEMARDILARDGFKSVHEEVLPSAEFGAGRVVRTEPHAGTNVAKTDPVTIFVSVGL | -0.268 |
| HMVGLTDLQRNVLVQIARGKSRQLISRTLKVTPAEISAALKVAQRRYRVASSTEVIVQALYDKTLSFHEIM | -0.707 |
| HMVIIPNILNKYKGLAFRQLEQVGLKIGDTIYEPNIQRDAVLRMQINGRSVQPGDQVMRFSVVDLVIG | -3.2 |
| HMVINKRELNVLSIYSRGSEKRAIILFPTGQTKLVKVGDTLNGGRVAAIGTTEIRYIKGGNNLVLKIPQ | -2.75 |
| HMVINVNEIIRRIKELKTFKTDRQVADFLGVSKATVSNWMARNSIDFPLLINKLDGVDLTWLLTGRGTPE | -2.15 |
| HMVIPATPTARRAKIAGLLADRSVRSQGELLTLLADAGIEVTQATLSRDLEALGAVKVRDGRGLVYAVPG | -0.32 |
| HMVIQRQIPPLVTRMLDGLEQFIQLDMPFDLDTRLGNIEAVRANMDRSDVTSAEAYRQVLELYSIELQ | -0.559 |
| HMVISLREINLIGVYGRPNARRALVRLSNGRYVRVEVGSDLDGGKVTAIGDEALNFVKRGRTYAIQLPA | -1.11 |
| HMVITPESVKEQVLAIISKSPAQGFNYKQISKRLNINDPSERKMVSDILRELSESGTIEEINKGKYRAKV | 0.186 |
| HMVKDYIQVTVNKEPVILKGKKDYIFIDIFNYIEFDLTIPKGSLYLLLNGKNAGYHDKLLDGDVIELGW | -2.17 |
| HMVKLDDLTGQDKASAEAAISNLGLKYSEQQEYSDEIEEGKVTRTDPGAGSTSLKAGDTVTVYISRGPE | 0.905 |
| HMVKLSATVKELLDFVIAKKTVTSSNVSKHFDISAQNASGRLKKLHATGLVLGQKEVAESGGLEFVYRS | -0.132 |
| HMVKLSDGIVEHIKSLIMAGRLKPGDKLPPEREFAATLGVSRTALREAVRTLSLMGLLDARQGEGTFVSG | -0.135 |
| HMVKPQANTIYKEYIKYRANLQNKNEFLSFSEYAKQKHNLEQMSEIMVDANLKEEMLETLKEMS | -0.0266 |
| HMVKSDLVGHRFILVEDVTPKLTPKYHYSGINWKLITTDNLVAGTRVEVIQVDVGKFHIKAIK | -1.85 |
| HMVKSIDEIYNEAVKSLANEDYDAAKKLFNYLINNFSDPDKFPLSLFWLAEIEFSSSNFDASKNYYMQ | 0.0365 |
| HMVKSSVTEVISMINALPVTVKPEDKADIISARMAYDTLTEDEKALVTNYEILTAAETRFNELIATT | 0.275 |
